# Patent publication US20240034774A1 (Gilead, published 2024)
# B1: Antibody A-1 (antibody, human IgG1, kappa)
# heavy: QVQLLQSGAAVTKPGASVRVSCEASGYNIRDYFIHWWRQAPGQGLQWVGWINPKTGQPNNPRQFQGRVSLTRHASWDFDTFSFYMDLKALRSDDTAVYFCARQRSDYWDFDVWGSGTQVTVSSASTKGPSVFPLAPSSKSTSGGTAALGCLVKDYFPEPVTVSWNSGALTSGVHTFPAVLQSSGLYSLSSVVTVPSSSLGTQTYICNVNHKPSNTKVDKKVEPKSCDKTHTCPPCPAPELLAGPDVFLFPPKPKDTLMISRTPEVTCVVVDVSHEDPEVKFNWYVDGVEVHNAKTKPREEQYNSTYRVVSVLTVLHQDWLNGKEYKCKVSNKALPLPEEKTISKAKGQPREPQVYTLPPSREEMTKNQVSLTCLVKGFYPSDIAVEWESNGQPENNYKTTPPVLDSDGSFFLYSKLTVDKSRWQQGNVFSCSVLHEALHSHYTQKSLSLSPGK
# light: DIQMTQSPSSLSASVGDTVTITCQANGYLNWYQQRRGKAPKLLIYDGSKLERGVPSRFSGRRWGQEYNLTINNLQPEDIATYFCQVYEFVVPGTRLDLKRTVAAPSVFIFPPSDEQLKSGTASVVCLLNNFYPREAKVQWKVDNALQSGNSQESVTEQDSKDSTYSLSSTLTLSKADYEKHKVYACEVTHQGLSSPVTKSFNRGEC
# B2: Antibody 1.52.64-1 (antibody, human IgG1, kappa)
# heavy: QVQLLQSGAAVTKPGASVRVSCEASGYNIRDYFIHWWRQAPGQGLQWVGWINPKTGQPNNPRQFQGRVSLTRHASFDFDTFSFYMDLKALRSDDTAVYFCARQRSDYWDFDVWGSGTQVTVSSASTKGPSVFPLAPSSKSTSGGTAALGCLVKDYFPEPVTVSWNSGALTSGVHTFPAVLQSSGLYSLSSVVTVPSSSLGTQTYICNVNHKPSNTKVDKKVEPKSCDKTHTCPPCPAPELLAGPDVFLFPPKPKDTLMISRTPEVTCVVVDVSHEDPEVKFNWYVDGVEVHNAKTKPREEQYNSTYRVVSVLTVLHQDWLNGKEYKCKVSNKALPLPEEKTISKAKGQPREPQVYTLPPSREEMTKNQVSLTCLVKGFYPSDIAVEWESNGQPENNYKTTPPVLDSDGSFFLYSKLTVDKSRWQQGNVFSCSVLHEALHSHYTQKSLSLSPGK
# light: DIQMTQSPSSLSASVGDTATITCQANGYLNWYQQRRGKAPKLLIYDGSKLERGVPSRFSGRRWGQEYNLTINNLQPEDIATYFCQVYEFVVPGTRLDLKRTVAAPSVFIFPPSDEQLKSGTASVVCLLNNFYPREAKVQWKVDNALQSGNSQESVTEQDSKDSTYSLSSTLTLSKADYEKHKVYACEVTHQGLSSPVTKSFNRGEC
# Columns and labels:
# [1] = molecular target: T1, Human FcγRIIIB-NA1 (human, UniProt O75015 17-200); assay: SPR (Biacore 4000), antibody amine coupled to CM4 chip, FcγRIIIB as analyte, steady-state fit
# T1 construct: also called CD16b NA1
# [2] = molecular target: T2, Human FcγRIIIB-NA2 (human, UniProt O75015 17-200); assay: as above
# T2 construct: also called CD16b NA2
# [3] = molecular target: T3, Cyno FcγRIII (cynomolgus macaque, UniProt Q8SPW2 17-208); assay: SPR (Biacore 4000), antibody amine coupled to CM4 chip, cyno FcγRIII as analyte, steady-state fit
# T3 construct: also called cynomolgus macaque FcγRIII
# Protocol: (§1) The in vitro binding dissociation constants (KD) of selected antibodies described herein for human and cynomolgus macaque (cyno) Fc binding receptors (FcγRs, FcRn) were determined using the Biacore 4000 surface plasmon resonace (SPR) biosensor, and either C1 or CM4 sensor chips (GE Healthcare).
# (§2) To determine cynomolgus macaque FcγRIIA, FcγRIIB, FcγRIII and FcγRI binding affinities each test antibody was amine coupled to a CM4 sensor chip at two densities (about 100 RU and about 800 RU). Cyno FcγRIIA and FcγRIIB were tested in a two-fold concentration series up to 1 μM. FcγRIII was tested in a two-fold concentration up to 500 nM. Cyno FcγRI was tested for binding using a two-step titration (3 nM and 30 nM). The response data for FcγRIIA, FcγRIIB, FcγRIII at steady-state were fit to a simple binding isotherm. Responses for FcγRI were fit to a simple kinetic model.
# [4] = molecular target: T4, Human FcγRIIB (human, UniProt P31994 46-217); assay: SPR (Biacore 4000), FcγRIIB/C amine coupled to CM4 chip, antibody as analyte, steady-state fit
# T4 construct: also called FcγRIIB/C; FcRIIB/C
# T4 sequence (looked up): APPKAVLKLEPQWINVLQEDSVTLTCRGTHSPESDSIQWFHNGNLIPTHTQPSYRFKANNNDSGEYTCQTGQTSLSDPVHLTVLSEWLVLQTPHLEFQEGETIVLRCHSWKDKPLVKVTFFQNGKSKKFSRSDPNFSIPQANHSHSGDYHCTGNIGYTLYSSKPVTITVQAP
# [5] = molecular target: T5, Cyno FcRn (cynomolgus macaque, UniProt Q8SPV9 24-297; Q8SPW0 21-119); assay: SPR (Biacore 4000) at pH 6.0, biotinylated cyno FcRn captured on streptavidin C1 chip, antibody as analyte, steady-state fit
# T5 construct: also called cynomolgus macaque FcRn; biotinylated cyno FcRn
# Protocol: (§3) The in vitro binding dissociation constants (KD) of selected antibodies described herein for human and cynomolgus macaque (cyno) Fc binding receptors (FcγRs, FcRn) were determined using the Biacore 4000 surface plasmon resonace (SPR) biosensor, and either C1 or CM4 sensor chips (GE Healthcare). Biotinylated human FcRn was purchased from Immunitrack. Biotinylated cynomolgus macaque FcRn and human FcγRIIIB-NA1 and FcγRIIIB-NA2 were purchased from Acro Biosystems.
# (§4) To determine cynomolgus macaque FcRn binding affinities, 600 RU of streptavidin was amine coupled to a C1 sensor chip using standard NHS/EDC coupling. The immobilization buffer was PBS+0.005% Tween 20, pH 7.4. Streptavidin was prepared at 50 μg/ml in 10 mM NaAc pH 4.5. Activation, coupling, and blocking steps were run for 10 minutes, each at 10 μl/min. Biotinylated cyno FcRn was captured to about 20 RU. Antibodies were tested for binding to the FcRn surface using a two-fold concentration series up to 1 μM. Data were collected at pH 6.0 and pH 7.4 in triplicate. The response data at steady-state were fit to a simple binding isotherm.
# [6] = molecular target: T6, Human FcRn (human, UniProt P55899 24-297; P61769 21-119); assay: SPR (Biacore 4000) at pH 7.4, biotinylated FcRn captured on streptavidin C1 chip, antibody as analyte, steady-state fit
# T6 construct: also called neonatal Fc-receptor; biotinylated human FcRn
# Protocol: as §1
# (§5) For human FcRn binding assays, 600 RU of streptavidin was amine coupled to a C1 sensor chip using standard NHS/EDC coupling. The immobilization buffer was PBS+0.005% Tween 20, pH 7.4. Streptavidin was prepared at 50 μg/ml in 10 mM NaAc pH 4.5. Activation, coupling, and blocking steps were run for 10 minutes, each at 10 μl/min. […] Data were collected at pH 6.0 and pH 7.4 in triplicate. The response data at steady-state were fit to a simple binding isotherm.
# [7] = molecular target: T7, Human FcγRIIA-167R (human, UniProt P12318 36-218); assay: SPR (Biacore 4000), receptor amine coupled to CM4 chip, antibody as analyte, steady-state fit
# T7 sequence (looked up): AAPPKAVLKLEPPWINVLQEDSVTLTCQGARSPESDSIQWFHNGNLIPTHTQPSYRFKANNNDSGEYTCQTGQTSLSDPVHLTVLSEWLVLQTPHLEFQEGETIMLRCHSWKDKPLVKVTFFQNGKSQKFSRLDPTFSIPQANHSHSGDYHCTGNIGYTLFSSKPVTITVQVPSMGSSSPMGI
# [8] = molecular target: T8, Human FcγRIIIA-176V (human, UniProt P08637 17-208); assay: as above
# T8 construct: also called CD16a 176V
# [9] = molecular target: T9, Human FcγRIIA-167H (human, UniProt P12318 36-218); assay: as above
# T9 sequence (looked up): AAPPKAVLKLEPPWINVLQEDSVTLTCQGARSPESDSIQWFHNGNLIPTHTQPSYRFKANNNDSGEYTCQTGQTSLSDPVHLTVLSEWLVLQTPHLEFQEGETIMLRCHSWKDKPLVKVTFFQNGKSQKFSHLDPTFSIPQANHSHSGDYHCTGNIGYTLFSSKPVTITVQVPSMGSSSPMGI
# [10] = molecular target: Human FcγRIIIA-176F (human, UniProt P08637 17-208); assay: as above
# [11] = molecular target: T10, Human FcγRI (human, UniProt P12314 16-288); assay: SPR (Biacore 4000), antibody amine coupled to CM4 chip, FcγRI as analyte (3 and 30 nM), kinetic fit
# T10 construct: also called CD64
# Protocol: as §3
# To determine human FcγRI binding affinities, each test antibody was amine coupled to a CM4 sensor chip at two densities (about 100 RU and about 800 RU). Human FcγRI was tested for binding using a two-step titration series (3 nM and 30 nM). Responses were fit to a simple kinetic model.
# [12] = molecular target: T11, Cyno FcγRI (cynomolgus macaque, UniProt A0A2K5U901 33-309); assay: SPR (Biacore 4000), antibody amine coupled to CM4 chip, cyno FcγRI as analyte (3 and 30 nM), kinetic fit
# T11 construct: also called cynomolgus macaque FcγRI
# Protocol: as §1, §2
# [13] = molecular target: gp120 CAAN (HIV)
# [14] = molecular target: gp120 Bal (HIV-1)
# [15] = molecular target: gp120 REJO (HIV)
# [16] = molecular target: T12, Cyno FcγRIIA (cynomolgus macaque); assay: SPR (Biacore 4000), antibody amine coupled to CM4 chip, cyno FcγRIIA as analyte, steady-state fit
# T12 construct: also called cynomolgus macaque FcγRIIA
# Protocol: as §1, §2
# [17] = molecular target: T5, Cyno FcRn; assay: SPR (Biacore 4000) at pH 7.4, biotinylated cyno FcRn captured on streptavidin C1 chip, antibody as analyte, steady-state fit
# Protocol: as §3, §4
# [18] = molecular target: T13, Cyno FcγRIIB (cynomolgus macaque); assay: SPR (Biacore 4000), antibody amine coupled to CM4 chip, cyno FcγRIIB as analyte, steady-state fit
# T13 construct: also called cynomolgus macaque FcγRIIB
# Protocol: as §1, §2
# [19] = molecular target: T6, Human FcRn; assay: SPR (Biacore 4000) at pH 6.0, biotinylated FcRn captured on streptavidin C1 chip, antibody as analyte, steady-state fit
# Protocol: as §1, §5
Binder,Kd [1],Kd [2],Kd [3],Kd [4],Kd [5],Kd [6],Kd [7],Kd [8],Kd [9],Kd [10],Kd [11],Kd [12],EC50 [13],EC50 [14],EC50 [15],Kd [16],Kd [17],Kd [18],Kd [19]
B1,59 nM,56 nM,7.1 nM,1600 nM,16 nM,1700 nM,130 nM,59 nM,131 nM,52 nM,0.002 nM,0.005 nM,2.17 nM,0.06 nM,2.37 nM,1100 nM,4300 nM,240 nM,38 nM
B2,64 nM,55 nM,8 nM,1900 nM,22 nM,1120 nM,199 nM,67 nM,221 nM,63 nM,0.0012 nM,0.005 nM,3.79 nM,0.07 nM,4.02 nM,1180 nM,5300 nM,280 nM,49 nM
